# From patent publication US20150010525A1, “Catalytic Tagging System to Study Macro-Molecular Interactions Using Engineered Ubiquitin Ligase and Ubiquitin-Like Proteins to Facilitate Substrate Identification” (THE REGENTS OF THE UNIVERSITY OF CALIFORNIA, priority 2012, published 2015)
# B1: Serine/threonine-protein phosphatase PGAM5, mitochondrial: phosphoglycerate mutase family member 5, dimeric protein phosphatase (protein, UniProt Q96HS1 1-289, looked up)
# chain: MAFRQALQLAACGLAGGSAAVLFSAVAVGKPRAGGDAEPRPAEPPAWAGGARPGPGVWDPNWDRREPLSLINVRKRNVESGEEELASKLDHYKAKATRHIFLIRHSQYHVDGSLEKDRTLTPLGREQAELTGLRLASLGLKFNKIVHSSMTRAIETTDIISRHLPGVCKVSTDLLREGAPIEPDPPVSHWKPEAVQYYEDGARIEAAFRNYIHRADARQEEDSYEIFICHANVIRYIVCRALQFPPEGWLRLSLNNGSITHLVIRPNGRVALRTLGDTGFMPPDKITRS
# modifications: full-length
# notes: phosphoglycerate mutase family member 5, dimeric protein phosphatase
# Tests used:
# [1] = target: T1, GST-XIAP (Homo sapiens, UniProt P98170); assay: In vitro GST pull down; format: binding; conditions: recombinant proteins
# T1 construct: made in house
# Description: FIG. 12 illustrates the identification of the proteolytic form of PGAM5 as an XIAP and cIAP1 substrate in vitro. […] Overall, 15 unique peptides from PGAM5 were recovered and account for 43% of the entire protein sequence. (B) An example of LC-MS/MS spectrum from endogenous PGAM5 N-terminal peptide after subtiligase labeling and positive enrichment. A non-natural amino acid, 2-aminobutyric acid (Abu), is a designed tag showing characteristic labeling by subtiligase. (C) PGAM5 is cleaved into a truncated form in cells. Jurkat cells were transiently transfected with C-terminal Myc tagged full length PGAM5 or PGAM5 (Δ2-24). […] (D) N-terminal amino acid sequence alignment of PGAM5(Δ24) and other known evolutionarily conserved IBM sequences. Reaper, Hid, and Grim are Drosophila proteins that bind DIAP1, the Drosophila IAP. Amino acids are colored according to their chemical properties. (E) XIAP binds PGAM5(Δ24) but not the full length PGAM5. Recombinant GST fused XIAP, PGAM5(FL), and PGAM5(Δ24) were used for in vitro GST pull down experiments. (F) PGAM5(Δ24) binds to XIAP and cIAP1 independent of the RING domain. […] The resins were washed and proteins were eluted and analyzed with SDSPAGE and coomassie blue staining. […] The ubiquitination assay was performed in vitro and PGAM5 is detected with an anti-His antibody.
# [2] = target: T2, cIAP1 (Homo sapiens, UniProt P61081+Q13490); assay: SILAC mass spectrometry screen for cIAP1 substrates with NEDDylator^cIAP1 in apoptotic Jurkat cell lysate; format: biochemical; conditions: Light lysate with NEDDylator^cIAP1, Heavy lysate with Ubc12
# T2 construct: cIAP1(ΔR) (residues 1-555); GST (N, cleaved yes); made in house; host or cells: E. coli BL21 (DE3)
# T2 sequence (Q13490+P61081 fused): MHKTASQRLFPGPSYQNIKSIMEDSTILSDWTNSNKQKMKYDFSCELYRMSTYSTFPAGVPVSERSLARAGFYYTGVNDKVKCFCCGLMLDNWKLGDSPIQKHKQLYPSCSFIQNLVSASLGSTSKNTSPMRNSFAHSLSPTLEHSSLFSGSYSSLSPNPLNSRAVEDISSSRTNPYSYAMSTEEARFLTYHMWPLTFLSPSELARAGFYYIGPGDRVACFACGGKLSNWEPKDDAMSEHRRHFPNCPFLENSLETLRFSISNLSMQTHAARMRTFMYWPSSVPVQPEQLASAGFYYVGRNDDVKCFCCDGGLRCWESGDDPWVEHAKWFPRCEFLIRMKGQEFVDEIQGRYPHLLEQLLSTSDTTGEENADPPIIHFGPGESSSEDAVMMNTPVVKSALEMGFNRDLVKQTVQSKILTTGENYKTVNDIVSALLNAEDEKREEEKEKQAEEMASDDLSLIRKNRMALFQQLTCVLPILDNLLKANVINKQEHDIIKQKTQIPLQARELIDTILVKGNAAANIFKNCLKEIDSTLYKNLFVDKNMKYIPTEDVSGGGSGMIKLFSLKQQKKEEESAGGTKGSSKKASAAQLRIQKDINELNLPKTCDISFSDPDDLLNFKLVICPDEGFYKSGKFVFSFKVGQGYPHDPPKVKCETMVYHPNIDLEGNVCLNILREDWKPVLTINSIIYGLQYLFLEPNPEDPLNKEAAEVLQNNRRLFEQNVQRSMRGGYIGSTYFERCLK
# T1 sequence (P98170 whole entry): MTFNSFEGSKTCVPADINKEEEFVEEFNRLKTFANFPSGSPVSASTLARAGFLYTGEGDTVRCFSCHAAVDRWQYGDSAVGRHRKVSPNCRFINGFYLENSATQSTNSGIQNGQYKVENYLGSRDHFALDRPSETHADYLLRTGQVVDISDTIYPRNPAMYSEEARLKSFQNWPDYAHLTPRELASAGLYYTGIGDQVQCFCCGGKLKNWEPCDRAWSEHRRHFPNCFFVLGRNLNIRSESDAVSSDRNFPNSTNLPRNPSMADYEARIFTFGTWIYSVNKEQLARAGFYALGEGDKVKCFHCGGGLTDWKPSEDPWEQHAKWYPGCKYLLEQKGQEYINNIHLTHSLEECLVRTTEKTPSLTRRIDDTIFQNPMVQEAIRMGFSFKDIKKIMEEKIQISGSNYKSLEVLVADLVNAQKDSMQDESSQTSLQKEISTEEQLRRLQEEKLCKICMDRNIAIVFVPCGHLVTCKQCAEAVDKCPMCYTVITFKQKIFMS
molecule,measurement,setting,value
B1,binding to XIAP (pull down),[1],not the full length PGAM5 was pulled down
same,L/H (Light/Heavy ratio),[2],23.7
